Results on 2 molecules are retold here after patent US20050042227A1 (published 2005).

In test [1] the target is mLRP/LRPTmMegT mini-receptor (MEGt) (UniProt Q07954 3293-4444). The experiment in a line: cell-based or functional assay.
Test [2] has as its target T1, recombinant human alpha-L-iduronidase (Aldurazyme) (human, UniProt P35475 27-653, limits assumed).
T1 construct: also called rhIDU; Recombinant human IDU
T1 sequence (looked up): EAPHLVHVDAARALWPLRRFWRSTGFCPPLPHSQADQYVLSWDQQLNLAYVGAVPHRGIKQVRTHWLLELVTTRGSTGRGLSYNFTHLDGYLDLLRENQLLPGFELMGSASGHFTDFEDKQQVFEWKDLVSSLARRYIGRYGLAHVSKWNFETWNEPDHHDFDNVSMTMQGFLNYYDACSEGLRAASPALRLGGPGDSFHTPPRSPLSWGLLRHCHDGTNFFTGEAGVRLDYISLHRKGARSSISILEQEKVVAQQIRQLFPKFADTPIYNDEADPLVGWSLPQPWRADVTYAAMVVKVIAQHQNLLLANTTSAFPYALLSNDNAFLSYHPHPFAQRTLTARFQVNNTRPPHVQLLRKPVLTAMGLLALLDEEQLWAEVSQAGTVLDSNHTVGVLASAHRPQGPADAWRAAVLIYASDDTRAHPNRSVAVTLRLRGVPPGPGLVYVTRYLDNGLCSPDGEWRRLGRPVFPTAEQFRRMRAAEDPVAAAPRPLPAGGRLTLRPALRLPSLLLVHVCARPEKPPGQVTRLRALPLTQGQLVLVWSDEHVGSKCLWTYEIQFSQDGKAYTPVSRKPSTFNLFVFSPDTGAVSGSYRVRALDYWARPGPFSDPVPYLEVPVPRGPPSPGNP
The experiment in a line: ligand blot, sLRP2 spotted on membrane, detection with antibodies.
Method: Membranes were then mounted in a Bio-Rad dot blot apparatus. The second ligand-binding domain of LRP1 (sLRP2, 1 μg/well) was applied to the membrane by vacuum filtration. The membrane was then cut into sections that were placed in separate wells of a 24-well plate. Membranes were blocked in TBS (20 mM Tris pH 7.4, 150 mM Sodium Chloride) with 5 mM Calcium Chloride and 3% non-fat dry milk for 30 minutes. Ligands were incubated with each membrane spot for 2 hours at room temperature. Individual blots were washed 2×5 minutes each with blocking buffer and then incubated with different antibodies in block buffer for one hour at room temperature to detect binding.

mLRP/LRPTmMegT mini-receptor (MEGt), sequence (Q07954 3293-4444): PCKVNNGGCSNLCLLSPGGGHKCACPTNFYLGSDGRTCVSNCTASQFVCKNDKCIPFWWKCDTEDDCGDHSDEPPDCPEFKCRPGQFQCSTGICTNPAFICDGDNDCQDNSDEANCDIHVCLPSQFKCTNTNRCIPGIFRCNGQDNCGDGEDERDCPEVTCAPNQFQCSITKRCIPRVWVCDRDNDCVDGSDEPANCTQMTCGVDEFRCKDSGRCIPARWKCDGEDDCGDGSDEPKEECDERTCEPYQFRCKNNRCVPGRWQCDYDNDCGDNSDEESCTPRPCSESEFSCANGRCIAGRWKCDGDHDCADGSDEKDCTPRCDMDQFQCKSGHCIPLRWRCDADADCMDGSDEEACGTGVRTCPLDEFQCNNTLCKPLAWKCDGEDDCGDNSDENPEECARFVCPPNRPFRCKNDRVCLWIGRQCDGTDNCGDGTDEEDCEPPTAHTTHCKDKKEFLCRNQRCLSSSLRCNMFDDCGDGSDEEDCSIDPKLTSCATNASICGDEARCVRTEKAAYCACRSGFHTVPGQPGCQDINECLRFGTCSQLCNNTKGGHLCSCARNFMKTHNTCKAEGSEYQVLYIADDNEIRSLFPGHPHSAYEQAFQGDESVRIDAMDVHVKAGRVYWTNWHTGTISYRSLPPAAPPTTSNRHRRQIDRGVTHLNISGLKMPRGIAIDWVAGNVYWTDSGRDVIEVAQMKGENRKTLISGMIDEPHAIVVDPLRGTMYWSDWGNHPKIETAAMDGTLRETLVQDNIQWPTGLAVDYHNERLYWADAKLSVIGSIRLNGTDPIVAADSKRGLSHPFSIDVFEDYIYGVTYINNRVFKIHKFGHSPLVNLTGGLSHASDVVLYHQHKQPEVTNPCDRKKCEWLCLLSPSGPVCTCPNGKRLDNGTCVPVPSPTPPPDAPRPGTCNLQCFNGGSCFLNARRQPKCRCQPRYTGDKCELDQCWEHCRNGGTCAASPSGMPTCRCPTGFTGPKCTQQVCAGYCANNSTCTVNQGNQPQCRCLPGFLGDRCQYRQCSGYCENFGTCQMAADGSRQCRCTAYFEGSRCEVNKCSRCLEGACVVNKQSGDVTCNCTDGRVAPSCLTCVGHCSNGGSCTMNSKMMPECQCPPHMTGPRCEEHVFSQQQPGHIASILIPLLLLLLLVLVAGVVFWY

B1: receptor-associated protein (RAP) (ligand)
chain: YSREKNQPKPSPKRESGEEFRMEKLNQLWEKAQRLHLPPVRLAELHADLKIQERDELAWKKLKLDGLDEDGEKEARLIRNLNVILAKYGLDGKKDARQVTSNSLSGTQEDGLDDPRLEKLWHKAKTSGKFSGEELDKLWREFLHHKEKVHEYNVLLETLSRTEEIHENVISPSDLSDIKGSVLHSRHTELKEKLRSINQGLDRLRRVSHQGYSTEAEFEEPRVIDLWDLAQSANLTDKELEAFREELKHFEAKIEKHNHYQKQLEIAHEKLRHAESVGDGERVSRSREKHALLEGRTKELGYTVKKHLQDLSGRISRARH
B1: the “ratio of apical-to-basolateral to basolateral-to-apical permeability coefficient of 125I-RAP, MEGt-transfected MDCK” value in test [1] worked out at 460 times.

B2: sLRP2, the entire second ligand-binding domain of human LRP1 (receptor, UniProt Q07954 806-1183, looked up)
chain: KCRVNNGGCSSLCLATPGSRQCACAEDQVLDADGVTCLANPSYVPPPQCQPGEFACANSRCIQERWKCDGDNDCLDNSDEAPALCHQHTCPSDRFKCENNRCIPNRWLCDGDNDCGNSEDESNATCSARTCPPNQFSCASGRCIPISWTCDLDDDCGDRSDESASCAYPTCFPLTQFTCNNGRCININWRCDNDNDCGDNSDEAGCSHSCSSTQFKCNSGRCIPEHWTCDGDNDCGDYSDETHANCTNQATRPPGGCHTDEFQCRLDGLCIPLRWRCDGDTDCMDSSDEKSCEGVTHVCDPSVKFGCKDSARCISKAWVCDGDNDCEDNSDEENCESLACRPPSHPCANNTSVCLPPDKLCDGNDDCGDGSDEGELCD
notes: Recombinant soluble fragment made as in Bu and Rennke 1996; also called immobilized LRP
As to B2, the binding result in test [2] is recorded as “no binding”.
